Laboratory results taken from paper PMC8609364, “A Selective Tether Recruits Activated Response Regulator CheB to Its Chemoreceptor Substrate” (mBio, 2021).

B1: methylesterase/deamidase CheB from E. coli, low-activity, unphosphorylated form (enzyme, UniProt P07330 1-349, looked up)
chain: MSKIRVLSVDDSALMRQIMTEIINSHSDMEMVATAPDPLVARDLIKKFNPDVLTLDVEMPRMDGLDFLEKLMRLRPMPVVMVSSLTGKGSEVTLRALELGAIDFVTKPQLGIREGMLAYNEMIAEKVRTAAKASLAAHKPLSAPTTLKAGPLLSSEKLIAIGASTGGTEAIRHVLQPLPLSSPALLITQHMPPGFTRSFADRLNKLCQIGVKEAEDGERVLPGHAYIAPGDRHMELSRSGANYQIKIHDGPAVNRHRPSVDVLFHSVAKQAGRNAVGVILTGMGNDGAAGMLAMRQAGAWTLAQNEASCVVFGMPREAINMGGVCEVVDLSQVSQQMLAKISAGQAIRI
notes: CheB methylesterase/deamidase of E. coli, unphosphorylated, from plasmid pCW/cheB; measured with 2 mM DTT in the buffer; also called low-activity CheB; unmodified CheB; source: E. coli K-12 RP3098 with pCW/cheB, purified
B2: CheBC, catalytic domain of E. coli CheB lacking the regulatory domain and linker (domain or fragment)
chain: LSSEKLIAIGASTGGTEAIRHVLQPLPLSSPALLITQHMPPGFTRSFADRLNKLCQIGVKEAEDGERVLPGHAYIAPGDRHMELSRSGANYQIKIHDGPAVNRHRPSVDVLFHSVAKQAGRNAVGVILTGMGNDGAAGMLAMRQAGAWTLAQNEASCVVFGMPREAINMGGVCEVVDLSQVSQQMLAKISAGQAIRI

Key:
[1] = target: Tar4QΔpp-6H L378C, E. coli Tar lacking the carboxyl-terminal pentapeptide, all-glutaminyl form, homodimer in … (E. coli, UniProt P07017 1-553, L378C, biotinylated at L378C); experiment: BLI; BLItz; biotinylated Tar homodimers in Nanodiscs held on an avidin sensor tip, CheB or CheBC in solution; 50 mM Tris-HCl pH 7.5, 10% glycerol, 5 mM MgCl2, 50 mM KCl, 2% BSA, 2 mM DTT; global fit, apparent rate constants, KD calculated from kon and koff; conditions: both partners purified
[2] = target: Tar4EΔpp-6H L378C, E. coli Tar lacking the carboxyl-terminal pentapeptide, all-glutamyl form, homodimer in … (E. coli, UniProt P07017 1-553, L378C, biotinylated at L378C); experiment: as above; conditions: both partners purified
[3] = tested on: pentapeptide-bearing Tar4E and Tar4Q; experiment: CheB binding to pentapeptide-bearing Tar, 4E and 4Q (biolayer interferometry); design: species or system E. coli; conditions: Tar4E versus Tar4Q
Description: We determined the kinetics of association and dissociation of methylesterase/deamidase CheB in its low- and high-activity form with the E. coli aspartate chemoreceptor Tar using biolayer interferometry ([22], [23]) and isolated receptor homodimers in Nanodiscs ([24], [25]). Apparent rate constants of association and dissociation were derived from global fits of time courses for binding and release (see Fig. S1 in the supplemental material). Equilibrium dissociation constants were calculated from those apparent rate constants.
E. coli CheB and Salmonella CheB D56C/C207S/C309S and D56C/S164A/C207S/C309S were purified as described previously ([11]). CheBC (amino acids [aa] 153 to 349) was purified using the procedure of West et al. ([40]), except that Bio-Gel P-60, was not used. […] The extent of modification was 59% for the former and 60% for the latter determined by reversed phase chromatography essentially as described previously ([26]) and confirmed by Nano LC-Nanospray QTQF mass spectroscopy. […]
Kinetics of CheB association and dissociation with Nanodisc-embedded Tar biotinylated at L378C were determined using biolayer interferometry ([22], [23]) as measured by a BLItz instrument (ForteBio, Menlo Park, CA, USA) and described in reference. […]

[4] = target: Tar4E L378C, E. coli aspartate chemoreceptor Tar, all-glutamyl form with carboxyl-terminal pentapeptide, … (E. coli, UniProt P07017 1-553, L378C, biotinylated at L378C); experiment: SPR
[5] = target: Tar4Q L378C, E. coli aspartate chemoreceptor Tar, all-glutaminyl form with carboxyl-terminal pentapeptide, … (E. coli, UniProt P07017 1-553, L378C, biotinylated at L378C); experiment: SPR
[6] = target: Tar4QΔpp-6H L378C, E. coli Tar lacking the carboxyl-terminal pentapeptide, all-glutaminyl form, homodimer in … (E. coli, UniProt P07017 1-553, L378C, biotinylated at L378C); experiment: SPR
CheB methylesterase = conditions: relative to phosphorylation; ref [8]; cited from earlier work
Source text: A high-activity form of the methylesterase/deamidase, designated CheB-P, is created by phosphorylation at a specific aspartyl residue in its N-terminal regulatory domain ([6][–][8]). However, activation is short-lived because of a high rate of autodephosphorylation ([7]), making it difficult to investigate binding of this activated form of the enzyme to chemoreceptors with confidence. Instead, we used a stable, functionally active mimic of phosphorylated CheB from Salmonella enterica subsp. enterica serovar Typhimurium (hereafter Salmonella) characterized by Saxl and coworkers ([26]). […] To investigate the role binding affinity might have in that activation, we measured binding of CheBC, a form of the methylesterase lacking the amino-terminal regulatory domain and linker, to pentapeptide-bearing and pentapeptide-lacking forms of Tar.

| Molecule | Kd [1] [µM] | Kd [2] [µM] | effect of receptor signaling state on binding [3] | Kd [4] [µM] | Kd [5] [µM] | Kd [6] [µM] | activation by deletion of the regulatory domain (CheB methylesterase) |
| --- | --- | --- | --- | --- | --- | --- | --- |
| B1 | 590 | 850 | the signaling state of the chemoreceptor coiled-coil body did not influence the binding of its pentapeptide to low-activity CheB |  |  |  |  |
| B2 |  |  |  | 590 | 1400 | 1200 | not as effectively as by phosphorylation |
